According to publication PMC6156364, “Bioinformatic and in vitro Analyses of Arabidopsis Starch Synthase 2 Reveal Post-translational Regulatory Mechanisms” (Frontiers in Plant Science, 2018):

What was measured:
Assay in all cases: SEC; gel permeation chromatography of ArcticExpress bacterial lysates on Superdex 20/300 GL in rupturing buffer (20 mM Tricine pH 7.5, 7.5 mM MgCl2, 1 mM DTT), 0.25 ml/min; fractions immunoblotted with anti-S-tag; wild type also pretreated with CKII + 1 mM ATP or with CIP
[1] = biological target: recombinant S-tagged Arabidopsis SS2 N-terminal region polypeptide (NT) (Arabidopsis thaliana) (UniProt Q9MAC8)
[2] = biological target: recombinant S-tagged Arabidopsis SS2 N-terminal truncation TRU1 (Arabidopsis thaliana) (UniProt Q9MAC8)
[3] = biological target: the molecule itself

## recombinant S-tagged Arabidopsis SS2 N-terminal region polypeptide (NT) (from UniProt Q9MAC8 56-240) (domain or fragment)
[1]
  stoichiometry N: > 6

## recombinant S-tagged Arabidopsis SS2 N-terminal truncation TRU1 (from UniProt Q9MAC8 57-792) (domain or fragment)
[2]
  stoichiometry N: 2

B1: recombinant S-tagged mature Arabidopsis thaliana starch synthase 2 (wild type) (enzyme, UniProt Q9MAC8 55-792, looked up)
chain: KCVSRVEASGSDDDEPEDALQATIDKSKKVLAMQRNLLHQIAERRKLVSSIKESTPDLDDAKASSKQESASSVNANTDATKKEIMDGDANGSVSPSTYGKSSLSKEPEAKTFSPSTESLKNRKQSSASVISSSPVTSPQKPSDVATNGKPWSSVVASSVDPPYKPSSVMTSPEKTSDPVTSPGKPSKSRAGAFWSDPLPSYLTKAPQTSTMKTEKYVEKTPDVASSETNEPGKDEEKPPPLAGANVMNVILVAAECAPFSKTGGLGDVAGALPKSLARRGHRVMVVVPRYAEYAEAKDLGVRKRYKVAGQDMEVMYFHAFIDGVDFVFIDSPEFRHLSNNIYGGNRLDILKRMVLFCKAAVEVPWYVPCGGVCYGDGNLAFIANDWHTALLPVYLKAYYRDHGIMKYTRSVLVIHNIAHQGRGPVDDFSYVDLPSHYLDSFKLYDPVGGEHFNIFAAGLKAADRVLTVSHGYSWEVKTLEGGWGLHNIINENDWKFRGIVNGIDTQEWNPEFDTYLHSDDYTNYSLENLHIGKPQCKAALQKELGLPVRPDVPLIGFIGRLDHQKGVDLIAEAVPWMMSQDVQLVMLGTGRPDLEEVLRQMEHQYRDKARGWVGFSVKTAHRITAGADILLMPSRFEPCGLNQLYAMNYGTIPVVHAVGGLRDTVQQFDPYSETGLGWTFDSAEAGKLIHALGNCLLTYREYKESWEGLQRRGMTQDLSWDNAAEKYEEVLVAAKYHW
notes: Cloned into pET29a; Predicted 85 kDa; also called SS2; AtSS2; source: E. coli ArcticExpress; in bacterial lysate (GPC); not shown: S-tag, N-terminal, kept
[3]
  stoichiometry N: 2
